The values that follow come from US20230340419A1, “METHODS FOR GENERATION OF MOUSE AND HUMAN URETERIC BUD ORGANOIDS AND COLLECTING DUCT ORGANOIDS” (University of Southern California, priority 2020, published 2023).

Common to all, as to assay type: cell-based, mouse
Test [1] relates to Wnt11-RFP UB organoid. Nature of the test: Stage III 1st round screening of growth factors and small molecules for UB organoid culture condition. As to conditions: reagent added to FGF9 + C3 + TTNPB + GDNF; compared to that control group. From the text:
We employed this Wnt11-RFP reporter system as a readout to screen for a culture condition that maintained the progenitor identity of UPCs in vitro. T-shaped UBs were manually isolated from E11.5 kidneys of Wnt11-RFP mice, and immediately embedded into Matrigel to set up a 3D culture platform that supported epithelial branching. In this 3D culture format, built on previous efforts towards the ex vivo culture of UB, hundreds of different combinations of growth factors and small molecules were tested (see also the Materials and Techniques section below for details under subheading “Screening for optimal UB culture condition”).
We systematically screened the optimal UB culture condition in four different stages (Stages I-IV).
In Stage III, based on the optimized recipe consisting of FGF9, TTNPB, CHIR99021 (3 μM) and GDNF, we preformed our 1st round of screening of growth factors and small molecules targeting major developmental pathways (e.g. TGF-β, BMP, Wnt, FGF, Hedgehog and Notch) and others. The branching morphogenesis, growth rate and Wnt11-RFP were recorded as readouts (Table 1). […] Representative images were taken at least for LDN193189, A83-01, and R-Spondin 1. These individual hits were then subjected to a 2nd round of screening to test their effects in various combinations, eventually leading to the identification of the optimal UB progenitor culture medium UBCM consisting of FGF9, TTNPB, CHIR99021 (3 μM), GDNF, LDN193189, A83-01, R-Spondin1, JAKI and SB202190.

In test [2] the test system is Wnt11-RFP UB organoid. Nature of the test: Withdrawal of individual components from UBCM (Stage IV validation). As to conditions: component withdrawn from UBCM. From the text:
To determine whether UBCM culture conditions enabled clonal growth from a single UPC, dissociated E11.5 UBs were embedded at clonal density in Matrigel and cultured in UBCM medium. Around 30% of the single cells self-organized into E11.5 UB-like budding structures within 5 days, though a smaller percentage (3-5%) maintained Wnt11-RFP (FIG. 1G), an efficiency similar to clonal organoid formation for Lgr5^+ intestinal stem cells. Importantly, the clonally-derived Wnt11-RFP^+ budding structures were identical to intact E11.5 UB-derived organoids in both branching morphology and growth rate (Table 3, FIG. 1H).
Lastly, in Stage IV, we asked whether each of the components in UBCM was essential.

Test [3] deals with UB organoids. In words: 2nd round of CD differentiation condition screening (qRT-PCR of Aqp2 and Foxi1). As to conditions: qRT-PCR, 7 days, under hBI+FGF9+Y27632 condition. How it is done:
The functions of the mature renal CD system are carried out by two major cell populations that are intermingled throughout the entire CD network. The more abundant principal cells (PCs) concentrate the urine and regulate Na^+/K^+ homeostasis via water and Na^+/K^+ transporters. The less abundant α- and β-intercalated cells (ICs) regulate normal acid-base homeostasis via secretion of H^+ or HCO3^− into the urine. The absence of an in vitro system recapitulating PC and IC development in an appropriate 3D context, constrains physiological exploration, disease modeling and drug screening on the renal CD system. With this limitation in mind, we developed a screen to establish conditions supporting the differentiation of CD organoids, assaying expression of Aqp2 and Foxi1, definitive markers for PC and IC lineages, respectively, by quantitative reverse transcription PCR (qRT-PCR), following 7 days of culture under variable but defined culture conditions (FIG. 2A).
Agonists or antagonists targeting major developmental pathways (e.g. TGF-β, BMP, Wnt, FGF, Hedgehog and Notch) were tested, together with hormonal inputs known to regulate PC or IC activity (aldosterone and vasopressin).
(In general: In qPCR the cycle at which signal appears reflects the starting amount.)

B1: R-Spondin 1: UBCM component (protein, UniProt Q2MKA7 21-263, looked up)
R-spondin-1: SRGIKGKRQRRISAEGSQACAKGCELCSEVNGCLKCSPKLFILLERNDIRQVGVCLPSCPPGYFDARNPDMNKCIKCKIEHCEACFSHNFCTKCKEGLYLHKGRCYPACPEGSSAANGTMECSSPAQCEMSEWSPWGPCSKKQQLCGFRRGSEERTRRVLHAPVGDHAACSDTKETRRCTVRRVPCPEGQKRRKGGQGRRENANRNLARKESKEAGAGSRRRKGQQQQQQQGTVGPLTSAGPA
For B1, the Wnt11-RFP entry in test [1] was “Better”.

B2: FGF8: member of the FGF family (protein, UniProt P55075 23-233, looked up)
Fibroblast growth factor 8: QEGPGRGPALGRELASLFRAGREPQGVSQQHVREQSLVTDQLSRRLIRTYQLYSRTSGKHVQVLANKRINAMAEDGDPFAKLIVETDTFGSRVRVRGAETGLYICMNKKGKLIAKSNGKGKDCVFTEIVLENNYTALQNAKYEGWYMAFTRKGRPRKGSKTRQHQREVHFMKRLPRGHHTTEQSLRFEFLNYPPFTRSLRGSQRTWAPEPR
Regarding B2, the Wnt11-RFP entry in test [1] was “Worse”.

B3: GDNF: glial cell-derived neurotrophic factor (protein, UniProt P39905 78-211, looked up)
Glial cell line-derived …: SPDKQMAVLPRRERNRQAAAANPENSRGKGRRGQRGKNRGCVLTAIHLNVTDLGLGYETKEELIFRYCSGSCDAAETTYDKILKNLSRNRRLVSDKVGQACCRPIAFDDDLSFLDDNLVYHILRKHSAKRCGCI
Take B3: the “Effect of withdrawal of the component from UBCM on organoid growth” value in test [2] is listed as “growth arrest”.

B4: FGF4: member of the FGF family (protein, UniProt P08620 31-206, looked up)
Fibroblast growth factor 4: APTAPNGTLEAELERRWESLVALSLARLPVAAQPKEAAVQSGAGDYLLGIKRLRRLYCNVGIGFHLQALPDGRIGGAHADTRDSLLELSPVERGVVSIFGVASRFFVAMSSKGKLYGSPFFTDECTFKEILLPNNYNAYESYKYPGMFIALSKNGKTKKGNRVSPTMKVTHFLPRL
Take B4: the Wnt11-RFP result in test [1] is recorded as “Worse”.

B5: FGF10: member of the FGF family (protein, UniProt O15520 38-208, looked up)
Fibroblast growth factor 10: QALGQDMVSPEATNSSSSSFSSPSSAGRHVRSYNHLQGDVRWRKLFSFTKYFLKIEKNGKVSGTKKENCPYSILEITSVEIGVVAVKAINSNYYLAMNKKGKLYGSKEFNNDCKLKERIEENGYNTYASFNWQHNGRQMYVALNGKGAPRRGQKTRRKNTSAHFLPMVVHS
Consider B5, for which, in test [1], the Organoid growth result is recorded as “Slower” and the Wnt11-RFP entry is “Worse”.

B6: BMP7: growth factor tested in screening (protein, UniProt P18075 293-431, looked up)
Bone morphogenetic protein 7: STGSKQRSQNRSKTPKNQEALRMANVAENSSSDQRQACKKHELYVSFRDLGWQDWIIAPEGYAAYYCEGECAFPLNSYMNATNHAIVQTLVHFINPETVPKPCCAPTQLNAISVLYFDDSSNVILKKYRNMVVRACGCH
B6: the Wnt11-RFP result in test [1] is recorded as “Better”. In test [3], the Aqp2 expression result was “dramatically increased” and the Foxi1 expression entry is “dramatically increased”.
